Measurements from the supplement of paper PMC9170038.

System: MS2 coat protein
Experiment: apparent KD of MS2 coat protein; designed switch direction (-1 OFF switch, 1 ON switch): 1; higher = weaker reporter binding
Method in brief: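 The apparent KD reported per design is the median over clusters of curve fits to normalised cluster fluorescence. The RNA switches were transcribed on Illumina chips by stalled E. coli RNA polymerase. SNAP-549-labelled MS2 coat protein was titrated from 0.7 or 1.5 nM, doubling up to 3 µM, in Tris-HCl pH 7.5 buffer containing KCl, MgCl2, BSA, DTT, tRNA and Tween-20, with no input, 200 uM small-molecule ligand, or an oligonucleotide input.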

[1] = input ligand: microRNA oligo, concentration not stated
[2] = Eterna round: R95, input ligand: FMN 200 uM
[3] = Eterna round: R95, input ligand: microRNA oligo, concentration not stated
[4] = Eterna round: R95, input ligand: none

UUGUUUUGAAAUUAACAUGAGGAUCACCCAUGUCUUGACACAGAGGAUAUACAUGAAUGUAGGUAGUAGAAGGCUGUUUAGUGU [JR_SSNG3_Sub098] (Eterna round: R96, puzzle: Same State NG 3)
apparent KD of MS2 coat protein [1]: 57.2 nM

AAAGAAAACAUAGGAUAUGUAACAUGAGGAUCACCCAUGUGUAGCCCGUAAGGGAUGACGGAUGGACAGAAGGAUGGUCUCAGG [Default title] (Eterna round: R96, puzzle: Same State NG 2)
apparent KD of MS2 coat protein (input ligand: FMN 200 uM): 403 nM
apparent KD of MS2 coat protein [1]: 155 nM
apparent KD of MS2 coat protein (input ligand: none): 104 nM

AGGCUCAGACGAGGAUAUAUGUGAUCACAUGAGGAUCACCCAUGUCUCGAGCUUCGGCUCGAGACAUAGAAGGCGUCUGAGCCA [SSNG2/3-A1] (Eterna round: R96, puzzle: Same State NG 2)
apparent KD of MS2 coat protein (input ligand: FMN 200 uM): 505 nM
apparent KD of MS2 coat protein [1]: 8.91 nM
apparent KD of MS2 coat protein (input ligand: none): 21.4 nM

AUGCUCGUGUGAGGAUAUGCCGCCGUUUCGGCUGCAGAAGGUGCUACGUUACAUGAGGAUCACCCAUGUCUCUGUUGUUUCGUG [salish99_SSNG1_r04_942] (Eterna round: R96, puzzle: Same State NG 1)
apparent KD of MS2 coat protein [1]: 18.7 nM

AAACUGGAGGACAAGGAUAUGUGCUCUACGACAUGAGGAUCACCCAUGUGAGACGUAGUAGUGAAACAGAAGGUGUCCUAUUGUA [Tiarri] (Eterna round: R96, puzzle: Same State 2)
apparent KD of MS2 coat protein [1]: 14.2 nM

UUGAAGAAUUAAGGAUAUUGAUUACAUAUGUUUAACAUGAGGAUCACCCAUGUGGGUUGCGGUAUCGAGAAGGUAAAAUAAUAG [Mat - same State NG 2 - JL mod - D82] (Eterna round: R96, puzzle: Same State NG 2)
apparent KD of MS2 coat protein (input ligand: FMN 200 uM): 181 nM
apparent KD of MS2 coat protein [1]: 231 nM
apparent KD of MS2 coat protein (input ligand: none): 258 nM

AUUGCUGUCACAGGAUAUCAUGCGGAAAUCGCGUGAGAAGGGUGGACUCUGUCAUUCACGGAGGACAUGAGGAUCACCCAUGUG [SS NG10LRO19] (Eterna round: R96, puzzle: Same State NG 1)
apparent KD of MS2 coat protein (input ligand: FMN 200 uM): 66.3 nM
apparent KD of MS2 coat protein [1]: 8.78 nM
apparent KD of MS2 coat protein (input ligand: none): 22.3 nM

GGAGCCUGCACUGAGGAUAUUCAUAUUUAAACAUGAGGAUCACCCAUGUAGGCCAGAAGGCCUUGGGAGAAGGCAGGUCGGCUCG [salish99_ss2_r3_083] (puzzle: Same State 2)
apparent KD of MS2 coat protein [2]: 35.3 nM
apparent KD of MS2 coat protein [3]: 372 nM
apparent KD of MS2 coat protein [4]: 780 nM

UUGCUCGUGUGAGGAUAUGCAGCCGUUUCGGCUGCAGAAGGUACUAUAAUACAUGAGGAUCACCCAUGUCUCUGUUGUUUUGUG [salish99_SSNG1_r04_929] (Eterna round: R96, puzzle: Same State NG 1)
apparent KD of MS2 coat protein (input ligand: FMN 200 uM): 26.9 nM
apparent KD of MS2 coat protein [1]: 20.8 nM
apparent KD of MS2 coat protein (input ligand: none): 25.4 nM

AAAAGUUGCGGGCAGGAUAUGUAUUAAAAUACAUGAGGAUCACCCAUGUGCGGGUAUAACACCCGACAGAAGGGCCAAUCGCGAC [Mat - Same State 2 - Mod of UCT - D95] (puzzle: Same State 2)
apparent KD of MS2 coat protein [2]: 29.6 nM
apparent KD of MS2 coat protein [3]: 160 nM
apparent KD of MS2 coat protein [4]: 226 nM

AUUUAACAAGCUUUUUGCUCGUCUUAUAAACAUGAGGAUCACCCAUGUAAUAGCGUGAGAGUAAUUUUUUAAAUAAU [JMF 96] (puzzle: Sensor for hsa-mir-208a)
apparent KD of MS2 coat protein [2]: 20.3 nM
apparent KD of MS2 coat protein [3]: 34.3 nM
apparent KD of MS2 coat protein [4]: 17 nM

UAGAUUCACGUAGGAUAUCGACCUACAUGAGGAUCACCCAUGUUUUUGAAUAGAUUUUUUUGUUACGAGAAGGACGUUAUGUAU [JR_SSNG2_Sub064] (Eterna round: R96, puzzle: Same State NG 2)
apparent KD of MS2 coat protein (input ligand: FMN 200 uM): 133 nM
apparent KD of MS2 coat protein [1]: 177 nM
apparent KD of MS2 coat protein (input ligand: none): 268 nM

GUUACAUGAGGAUCACCCAUGUAUGUGUGGGAGUAAGUGUCUUAGGAUAUCUAUUAUUUAAUUUGAGAGAAGGAAGAUUGUUGU [JMF's solution 28] (Eterna round: R96, puzzle: Same State NG 3)
apparent KD of MS2 coat protein (input ligand: FMN 200 uM): 107 nM
apparent KD of MS2 coat protein [1]: 97.7 nM
apparent KD of MS2 coat protein (input ligand: none): 107 nM

UGUUGUAUUACAGGAUAUCUAUUAGUUUGAUUUAGAGAAGGGUAUUCACAUGAGGAUCACCCAUGUAUAUACGAGGAAGUUGUG [JMF's solution 94] (Eterna round: R96, puzzle: Same State NG 1)
apparent KD of MS2 coat protein [1]: 41.4 nM

GGAGCCGAUACUGAGGAUAUUCAUAUUAAAACAUGAGGAUCACCCAUGUAGGCCAGAAGGCCUUGGGAGAAGGCAGAUCGGCUCC [Biseusra - 4] (Eterna round: R96, puzzle: Same State 2)
apparent KD of MS2 coat protein (input ligand: FMN 200 uM): 21 nM
apparent KD of MS2 coat protein [1]: 207 nM
apparent KD of MS2 coat protein (input ligand: none): 358 nM

UUAACAUGACGAGGAUAUCAUUUAUAUCUUGAUUGAGAAGGCGUUCUUUUUUUUACCUAACAUGAGGAUCACCCAUGUGACAGU [JR_SSNG1_Sub051] (Eterna round: R96, puzzle: Same State NG 1)
apparent KD of MS2 coat protein (input ligand: FMN 200 uM): 12.4 nM
apparent KD of MS2 coat protein [1]: 13.7 nM
apparent KD of MS2 coat protein (input ligand: none): 17.6 nM

AUUAAACAUGAGGAUCACCCAUGUCAACAAAGUCGAGGAUAUGGGCAUAUUAUCUUCUUUCCAGAAGGCGAAUAAU [salish99_ss1_r3_089] (puzzle: Same State 1)
apparent KD of MS2 coat protein [2]: 431 nM
apparent KD of MS2 coat protein [3]: 136 nM
apparent KD of MS2 coat protein [4]: 404 nM

UUAAGCCACGGGCAGGAUAUGUAUUAAUAUACAUGAGGAUCACCCAUGUGCAGGUGUAACACCUGACAGAAGGGCCAAUCGCGGC [Soondi - 5] (puzzle: Same State 2)
apparent KD of MS2 coat protein [2]: 35 nM
apparent KD of MS2 coat protein [3]: 177 nM
apparent KD of MS2 coat protein [4]: 286 nM

UGUUGUAUUACAGGAUAUCUAUUGUUUUUAUGUAGAGAAGGGUAUUCACAUGAGGAUCACCCAUGUAUAUACGAGGAAGUUGUG [JMF's solution 85] (Eterna round: R96, puzzle: Same State NG 1)
apparent KD of MS2 coat protein (input ligand: FMN 200 uM): 53.2 nM
apparent KD of MS2 coat protein [1]: 36.6 nM
apparent KD of MS2 coat protein (input ligand: none): 48.8 nM

GGUCCAGCCUGAGCUGGACAAAAGCAUGUACAUGAGGAUCACCCAUGUCAUGUACAAGCUUUUUGCUCGUCAUAAAU [Mat - hsa-mir-208a - 96] (Eterna round: R96, puzzle: Sensor for hsa-mir-208a)
apparent KD of MS2 coat protein (input ligand: FMN 200 uM): 573 nM
apparent KD of MS2 coat protein [1]: 16.3 nM
apparent KD of MS2 coat protein (input ligand: none): 435 nM

CCGUAGAUGGAAGGAUAUGGAGCCUUAUUGGCUCCAGAAGGUUCAAUACAUGAGGAUCACCCAUGUUCGGCGGUCAAUAGACCG [Eli NG1ss - 81] (Eterna round: R96, puzzle: Same State NG 1)
apparent KD of MS2 coat protein (input ligand: FMN 200 uM): 26.9 nM
apparent KD of MS2 coat protein [1]: 32 nM
apparent KD of MS2 coat protein (input ligand: none): 66.6 nM

GCCGGCUGGUGAGGAUAUGGCGCCUUGUUGGUGCCAGAAGGCAUGUCUUUUGACAUGAGGAUCACCCAUGUGUUGUCGUUGGCG [salish99_SSNG1_r04_613] (Eterna round: R96, puzzle: Same State NG 1)
apparent KD of MS2 coat protein (input ligand: FMN 200 uM): 221 nM
apparent KD of MS2 coat protein [1]: 72.3 nM
apparent KD of MS2 coat protein (input ligand: none): 47.8 nM

UGGCUCAGACUAGGAUAUAUGUGGUCACAUGAGGAUCACCCAUGUCUCGAGCUUCGGCUCGAGGCAUAGAAGGAGUCUGAGCCU [SSNG2/5-D3] (Eterna round: R96, puzzle: Same State NG 2)
apparent KD of MS2 coat protein (input ligand: FMN 200 uM): 249 nM
apparent KD of MS2 coat protein [1]: 15.3 nM
apparent KD of MS2 coat protein (input ligand: none): 59.9 nM

CGGCGCUGUUGAGAGGAUAUGCGGUGAUGGACAUGAGGAUCACCCAUGUUAGCGAUAGCAUUACGGUAGAAGGCUCUACAGCUGU [Soteed Omei mod 11] (puzzle: Same State 2)
apparent KD of MS2 coat protein [3]: 21.7 nM

GGUAUCGACACAGGAUAUGCUAUCCUUUGGGUAGCAGAAGGGUGAACAUGAGGAUCACCCAUGUAGGUGCCAGGGCGUGAGCCC [JL SSNG1 1.79] (Eterna round: R96, puzzle: Same State NG 1)
apparent KD of MS2 coat protein (input ligand: FMN 200 uM): 368 nM
apparent KD of MS2 coat protein [1]: 94.1 nM
apparent KD of MS2 coat protein (input ligand: none): 787 nM

AGACACAUGAGGAUCACCCAUGUUACGAGCUUAGCUCGGACACAGGAUAUCCGGUCCUAGAGACCGGAGAAGGGUGGCUGAAAA [Zara MOD2] (Eterna round: R96, puzzle: Same State NG 3)
apparent KD of MS2 coat protein (input ligand: FMN 200 uM): 728 nM
apparent KD of MS2 coat protein [1]: 212 nM
apparent KD of MS2 coat protein (input ligand: none): 587 nM

ACAAGCUUUUCUGCAUUGAAAGGUUGAUAACAUGAGGAUCACCCAUGUUUAUAUGAAAAUAAUGCUCCUCGUCUUAU [JR_SHM208A_Sub094] (puzzle: Sensor for hsa-mir-208a)
apparent KD of MS2 coat protein [2]: 55.4 nM
apparent KD of MS2 coat protein [3]: 11.4 nM
apparent KD of MS2 coat protein [4]: 46.9 nM

AACAAUCUAUCUGAGGAUAUCAUGAAAAAAACAUGAGGAUCACCCAUGUGCAGGAAAACUGCAUAUGAGAAGGCAGAUAGAUUGU [salish99_SS2_r3_002] (Eterna round: R96, puzzle: Same State 2)
apparent KD of MS2 coat protein [1]: 480 nM

CCUGCAAUUAACGCCUACAUGAGGAUCACCCAUGUAUGUAGGCAGGAUAUCGUUUGCUUUGCAAACGAGAAGGGCUGUAGUAGC [salish99_SSNG3_R04_002] (Eterna round: R96, puzzle: Same State NG 3)
apparent KD of MS2 coat protein (input ligand: FMN 200 uM): 18.7 nM
apparent KD of MS2 coat protein [1]: 15.4 nM
apparent KD of MS2 coat protein (input ligand: none): 18.9 nM

UUUUUUUUUUAGAGACAAGCUUUUUGAUCACAUGAGGAUCACCCAUGUCUCGUCUUAUUUUUUUUUUUUUUUUUUUU [BA Sensor hsa-mir-208a - 2 - 4] (puzzle: Sensor for hsa-mir-208a)
apparent KD of MS2 coat protein [2]: 37.3 nM
apparent KD of MS2 coat protein [3]: 17.5 nM
apparent KD of MS2 coat protein [4]: 103 nM

GCAGAACAUGAGGAUCACCCAUGUCUCUAAUAUUGAGGAUAUGGGCACGGUAUAUCCGAACCAGAAGGCGAACUGC [SS1 Teenbexe 16] (puzzle: Same State 1)
apparent KD of MS2 coat protein [2]: 420 nM
apparent KD of MS2 coat protein [3]: 322 nM
apparent KD of MS2 coat protein [4]: 431 nM
